Reference: patent publication US20090175860A1 (Novartis, published 2009)

B1: 04687 (parental anti-cMet Fab antibody) (Fab, V domains shown)
VH: QVQLVQSGAEVKKPGSSVKVSCKASGGTFSSYAISWVRQAPGQGLEWMGGIDPFGTANYAQKFQGRVTITADESTSTAYMELSSLRSEDTAVYYCARVYQDVWGQGTLVTVSS
VL: DIVMTQSPDSLAVSLGERATINCRSSQSILYGINNNFLGWYQQKPGQPPKLLIYWASTRESGVPDRFSGSGSGTDFTLTISSLQAEDVAVYYCQQYYNHPHTFGQGTKVEIKR
notes: carries two C-terminal tags (FLAG and 6xHis)
B2: 05097 (affinity-improved anti-cMet Fab antibody) (Fab, V domains shown)
VH: QVQLVQSGAEVKKPGSSVKVSCKASGGTFSSYAISWVRQAPGQGLEWMGGIDPFGTANYAQKFQGRVTITADESTSTAYMELSSLRSEDTAVYYCARVYQDVWGQGTLVTVSS
VL: DIVMTQSPDSLAVSLGERATINCRSSQSILYGINNNFLGWYQQKPGQPPKLLIYWASTRESGVPDRFSGSGSGTDFTLTISSLQAEDVAVYYCQQYAFGWTFGQGTKVEIKR
B3: 05185 (affinity-improved anti-cMet Fab antibody) (Fab, V domains shown)
VH: QVQLVQSGAEVKKPGSSVKVSCKASGGTFSSYAISWVRQAPGQGLEWMGGIDPIMGTEYAQKFQGRVTITADESTSTAYMELSSLRSEDTAVYYCARVYQDVWGQGTLVTVSS
VL: DIVMTQSPDSLAVSLGERATINCRSSQSILYGINNNFLGWYQQKPGQPPKLLIYWASTRESGVPDRFSGSGSGTDFTLTISSLQAEDVAVYYCQQYAYEPNTFGQGTKVEIKR
B4: 05098 (affinity-improved anti-cMet Fab antibody) (Fab, V domains shown)
VH: QVQLVQSGAEVKKPGSSVKVSCKASGGTFSSYAISWVRQAPGQGLEWMGGIDPFGTANYAQKFQGRVTITADESTSTAYMELSSLRSEDTAVYYCARVYQDVWGQGTLVTVSS
VL: DIVMTQSPDSLAVSLGERATINCRSSQSILYGINNNFLGWYQQKPGQPPKLLIYWASTRESGVPDRFSGSGSGTDFTLTISSLQAEDVAVYYCLQYSDEPWTFGQGTKVEIKR
B5: 04536 (parental anti-cMet Fab antibody) (Fab, V domains shown)
VH: QVQLVQSGAEVKKPGASVKVSCKASGYTFTGYYMNWVRQAPGQGLEWMGIINPWTGNTNYAQKFQGRVTMTRDTSISTAYMELSSLRSEDTAVYYCARDPGFFYYTPSDLWGQGTLVTVSS
VL: DIELTQPPSVSVAPGQTARISCSGDSIGNKYVHWYQQKPGQAPVLVIYADSDRPSGIPERFSGSNSGNTATLTISGTQAEDEADYYCQAYDSSMLRVFGGGTKLTVLG
notes: as for B1

Assays:
recombinant human c-Met [1] = molecular target: T1, recombinant human c-Met (human, UniProt P08581 25-932, limits assumed); experiment: SPR (BIAcore), Fab on immobilised human c-Met
T1 construct: Soluble recombinant protein: immobilised on the CM5 chip in Biacore, in solution in the equilibrium titration; The precursor is cleaved into disulfide-linked alpha and beta subunits; also called Hepatocyte Growth Factor Receptor
Experimental: (§1) Using these clones, kinetic SPR analysis is performed on a CM5 chip (Biacore, Sweden) which had been coated with a density of ˜400 RU of either recombinant human c-Met, in 10 mM Na-acetate pH 4.5 using standard EDC-NHS amine coupling chemistry. […] PBS (136 mM NaCl, 2.7 mM KCl, 10 mM Na2HPO4 , 1.76 mM KH2PO4 pH 7.4) is used as the running buffer. The Fab preparations are applied in concentration series of 16-500 nM at a flow rate of 20 μl/min. Association phase is set to 60 s and dissociation phase to 120 s.

[2] = molecular target: T2, full length human c-Met on cells (human, UniProt P08581 25-1390); experiment: flow cytometry, Fab titration on GTL-16 cells
T2 construct: whole, on cells; NCI-H441 for migration; A549 for autophosphorylation; also called human c-Met GTL-16; c-Met on NCI-H441 cells
Experimental: (§2) In order to further characterize the anti-c-Met antibodies, the affinity to full length human and cynomolgus c-Met is determined. GTL16, CHO cells overexpressing cynomolgus c-Met or rhesus 4 MBr-5 cells are washed, trypsinised, and suspended in PBS containing 3% FCS (3% FCS/PBS) at 4-C. 2-5×10⁵ cells/sample are resuspended in 140 μl of 3% FCS//PBS containing 5 μg/ml of purified anti-cMet Fabs or serial dilutions thereof. As a positive control 5 μg/ml of DO24 (mouse IgG2a), anti-human c-Met is used. The cells are incubated for 30-60 minutes at 4° C. before being pelleted by centrifugation for 2 min at 2000 rpm (716 g) at 4° C. and washed in 200 μl of in chilled 3% FCS/PBS. The cells are again pelleted by centrifugation and the PBS gently removed. Cells are resuspended in 100 μl of goat anti-human IgG (H+L) PE conjugated (Jackson Cat No. 109-116-088) diluted 1:200 in 3% FCS/0.02% NaN₃/PBS; For the positive control goat anti-mouse IgG (H+L)-PE conjugated (Jackson Cat No. 115-116-146) diluted 1:200 in 3% FCS/PBS is used. Samples are incubated in the dark for 30-60 min at 4° C. Following centrifugation and washing in 200 μl of 3% FCS/0.02%/NaN₃/PBS the cells are resuspended in 100 μl of 3% FCS/PBS and assayed using FACS-array or FACS-Calibur.

[3] = molecular target: T3, cynomolgus c-Met on CHO cells (cynomolgus, UniProt A0A2K5UM36 25-1381, The natural precursor is cleaved into disulfide-linked alpha and beta subunits. It is given here as one mature chain, following the entry's CHAIN feature.); experiment: flow cytometry, Fab on CHO-cyno c-Met cells
T3 construct: also called cyno c-Met; CHO-cMet cyno
Experimental: as §2

[4] = molecular target: T4, rhesus c-Met on 4MBr-5 cells (rhesus); experiment: flow cytometry, Fab titration on rhesus 4MBr-5 cells
T4 construct: whole, on cells
Experimental: as §2

recombinant human c-Met [5] = molecular target: T1, recombinant human c-Met; experiment: SPR (BIAcore), c-Met amine-coupled on CM5 chip, Fab 16-500 nM as analyte
Experimental: as §1

[6] = molecular target: T3, cynomolgus c-Met on CHO cells; experiment: flow cytometry, Fab titration on CHO cells overexpressing cynomolgus c-Met
Experimental: as §2

[7] = molecular target: T2, full length human c-Met on cells; experiment: flow cytometry, Fab on GTL-16 cells
Experimental: as §2

recombinant human c-Met [8] = molecular target: T1, recombinant human c-Met; experiment: solution equilibrium titration (SET), ECL detection (BioVeris), Fab with human c-Met in solution
Experimental: Electrochemiluminescence (ECL) based affinity determination in solution and data evaluation are basically performed as described by Haenel et al., 2005. A constant amount of Fab is equilibrated with different concentrations (serial 3ⁿ dilutions) of human c-Met (4 nM starting concentration) in solution. Biotinylated human c-Met coupled to paramagnetic beads (M-280 Streptavidin, Dynal), and BV-Tag™ (BioVeris Europe, Witney, Oxfordshire, UK) labelled anti-human (Fab)′₂ (Dianova) is added and the mixture incubated for 30 min. Subsequently, the concentration of unbound Fab is quantified by ECL detection using the M-SERIES® 384 analyzer (BioVeris Europe).
(§3) Using the assay conditions described above, the affinities for the affinity-optimized anti-c-Met Fabs are determined in solution. Affinities are determined for antibodies with KDs below 4.6 pM to human c-Met. FACs based analysis of binding to cyno-c-Met expressed on CHO cells, as described above, is carried out.

[9] = molecular target: T3, cynomolgus c-Met on CHO cells; experiment: flow cytometry, Fab on CHO-cyno c-Met cells; remark: listed apart in the source
Experimental: as §2, §3

T2 sequence (P08581 25-1390): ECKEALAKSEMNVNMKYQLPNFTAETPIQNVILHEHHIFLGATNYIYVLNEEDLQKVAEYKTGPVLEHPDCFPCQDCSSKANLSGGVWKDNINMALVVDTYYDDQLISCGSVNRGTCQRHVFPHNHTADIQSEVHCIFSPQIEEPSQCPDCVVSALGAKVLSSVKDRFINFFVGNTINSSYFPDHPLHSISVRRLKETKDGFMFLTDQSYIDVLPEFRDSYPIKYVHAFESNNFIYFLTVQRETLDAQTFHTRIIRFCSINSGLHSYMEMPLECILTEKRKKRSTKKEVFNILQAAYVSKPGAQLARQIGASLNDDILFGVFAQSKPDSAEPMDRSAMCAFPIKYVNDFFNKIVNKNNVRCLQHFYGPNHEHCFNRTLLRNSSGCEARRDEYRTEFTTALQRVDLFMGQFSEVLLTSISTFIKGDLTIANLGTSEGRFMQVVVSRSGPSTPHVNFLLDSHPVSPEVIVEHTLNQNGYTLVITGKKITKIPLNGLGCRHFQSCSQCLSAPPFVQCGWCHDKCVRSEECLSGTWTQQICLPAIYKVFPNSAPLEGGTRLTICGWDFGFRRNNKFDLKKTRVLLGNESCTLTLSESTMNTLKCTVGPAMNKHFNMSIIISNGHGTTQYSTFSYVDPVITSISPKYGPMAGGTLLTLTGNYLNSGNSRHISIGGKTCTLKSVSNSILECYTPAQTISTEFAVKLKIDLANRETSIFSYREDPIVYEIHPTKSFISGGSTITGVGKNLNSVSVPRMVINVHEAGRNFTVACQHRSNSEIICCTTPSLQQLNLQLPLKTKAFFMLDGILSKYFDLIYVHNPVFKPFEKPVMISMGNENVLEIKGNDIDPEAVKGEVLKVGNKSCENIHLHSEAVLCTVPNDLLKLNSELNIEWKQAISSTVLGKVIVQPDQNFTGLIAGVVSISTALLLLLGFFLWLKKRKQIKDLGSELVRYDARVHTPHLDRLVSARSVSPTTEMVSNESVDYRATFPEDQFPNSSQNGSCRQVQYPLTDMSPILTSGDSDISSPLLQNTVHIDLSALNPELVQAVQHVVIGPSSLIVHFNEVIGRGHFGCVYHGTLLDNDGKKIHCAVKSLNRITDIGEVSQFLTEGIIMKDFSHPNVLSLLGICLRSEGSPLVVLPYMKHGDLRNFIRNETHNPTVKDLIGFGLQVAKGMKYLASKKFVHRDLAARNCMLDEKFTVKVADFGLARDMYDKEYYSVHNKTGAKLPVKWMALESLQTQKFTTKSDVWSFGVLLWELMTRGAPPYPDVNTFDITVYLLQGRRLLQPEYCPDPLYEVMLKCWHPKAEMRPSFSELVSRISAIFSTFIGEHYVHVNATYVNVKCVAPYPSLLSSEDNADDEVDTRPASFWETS
T1 sequence (P08581 25-932 limits assumed): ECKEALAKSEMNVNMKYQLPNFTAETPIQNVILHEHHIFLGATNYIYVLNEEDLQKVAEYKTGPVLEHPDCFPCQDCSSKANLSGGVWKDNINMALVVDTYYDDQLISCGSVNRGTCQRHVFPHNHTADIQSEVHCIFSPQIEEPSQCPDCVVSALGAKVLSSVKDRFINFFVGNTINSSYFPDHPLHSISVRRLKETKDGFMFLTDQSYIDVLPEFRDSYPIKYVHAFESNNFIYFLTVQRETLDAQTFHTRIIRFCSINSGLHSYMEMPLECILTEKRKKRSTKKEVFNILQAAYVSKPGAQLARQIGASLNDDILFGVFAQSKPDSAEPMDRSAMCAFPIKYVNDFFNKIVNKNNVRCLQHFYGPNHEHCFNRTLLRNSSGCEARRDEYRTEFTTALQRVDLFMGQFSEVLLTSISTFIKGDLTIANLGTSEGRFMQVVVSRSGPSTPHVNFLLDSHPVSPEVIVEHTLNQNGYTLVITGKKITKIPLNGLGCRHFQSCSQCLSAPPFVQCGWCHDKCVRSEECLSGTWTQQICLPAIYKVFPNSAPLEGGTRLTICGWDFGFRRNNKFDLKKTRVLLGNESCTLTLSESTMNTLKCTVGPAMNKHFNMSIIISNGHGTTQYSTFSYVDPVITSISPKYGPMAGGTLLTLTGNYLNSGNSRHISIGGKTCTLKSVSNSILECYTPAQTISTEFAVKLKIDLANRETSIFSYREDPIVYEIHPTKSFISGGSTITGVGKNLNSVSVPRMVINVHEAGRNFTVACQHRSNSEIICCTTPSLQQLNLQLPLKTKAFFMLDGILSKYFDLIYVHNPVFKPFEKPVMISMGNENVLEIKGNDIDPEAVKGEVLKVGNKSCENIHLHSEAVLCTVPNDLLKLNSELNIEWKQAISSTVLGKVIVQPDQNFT
T3 sequence (A0A2K5UM36 entry or part of it limits assumed): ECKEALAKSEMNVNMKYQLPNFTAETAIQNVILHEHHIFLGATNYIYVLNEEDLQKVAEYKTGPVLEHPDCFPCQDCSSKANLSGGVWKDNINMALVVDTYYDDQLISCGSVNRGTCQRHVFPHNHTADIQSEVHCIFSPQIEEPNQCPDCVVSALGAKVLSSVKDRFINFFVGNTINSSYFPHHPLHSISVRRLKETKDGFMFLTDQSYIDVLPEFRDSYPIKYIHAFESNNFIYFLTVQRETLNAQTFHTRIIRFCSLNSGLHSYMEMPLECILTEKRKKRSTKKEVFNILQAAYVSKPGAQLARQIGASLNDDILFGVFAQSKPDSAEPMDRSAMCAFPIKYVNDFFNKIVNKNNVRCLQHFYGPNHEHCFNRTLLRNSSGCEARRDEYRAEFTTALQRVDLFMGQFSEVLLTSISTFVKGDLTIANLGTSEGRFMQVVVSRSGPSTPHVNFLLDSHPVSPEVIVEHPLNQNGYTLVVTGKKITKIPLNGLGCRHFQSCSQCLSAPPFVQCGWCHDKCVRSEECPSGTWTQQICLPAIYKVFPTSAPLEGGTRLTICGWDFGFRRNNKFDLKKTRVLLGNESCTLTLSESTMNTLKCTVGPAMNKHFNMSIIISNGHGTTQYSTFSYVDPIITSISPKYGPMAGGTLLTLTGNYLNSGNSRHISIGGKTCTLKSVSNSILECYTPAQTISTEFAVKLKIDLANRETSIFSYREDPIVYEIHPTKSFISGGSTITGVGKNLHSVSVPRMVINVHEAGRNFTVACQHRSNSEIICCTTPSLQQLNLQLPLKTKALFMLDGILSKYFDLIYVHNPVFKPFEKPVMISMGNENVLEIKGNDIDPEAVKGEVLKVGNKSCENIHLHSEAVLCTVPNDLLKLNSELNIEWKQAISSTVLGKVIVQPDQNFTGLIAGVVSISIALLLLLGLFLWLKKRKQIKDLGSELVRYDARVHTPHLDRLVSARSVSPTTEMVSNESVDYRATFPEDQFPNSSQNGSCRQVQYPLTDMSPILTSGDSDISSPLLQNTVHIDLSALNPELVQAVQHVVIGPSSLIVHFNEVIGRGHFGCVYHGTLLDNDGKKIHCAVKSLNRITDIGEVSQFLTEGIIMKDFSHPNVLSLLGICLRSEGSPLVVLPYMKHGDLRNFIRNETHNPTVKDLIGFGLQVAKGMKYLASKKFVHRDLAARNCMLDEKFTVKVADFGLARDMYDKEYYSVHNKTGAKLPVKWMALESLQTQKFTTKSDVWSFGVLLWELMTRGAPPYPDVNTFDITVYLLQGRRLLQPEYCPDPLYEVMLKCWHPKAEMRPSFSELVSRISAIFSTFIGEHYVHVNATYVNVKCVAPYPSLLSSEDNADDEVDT

| Binder | Kd (recombinant human c-Met [1]) [nM] | Kd [2] [nM] | Kd [3] [nM] | Kd [4] [nM] | Kd (recombinant human c-Met [5]) [nM] | Kd [6] [nM] | Kd [7] [nM] | Kd (recombinant human c-Met [8]) [nM] | Kd [9] [nM] |
| --- | --- | --- | --- | --- | --- | --- | --- | --- | --- |
| B1 | 0.8 | 5.7 | 1.3 | 1.2 | 0.8 | 1.1 | 4 |  |  |
| B2 |  |  |  |  |  |  |  | 0.0036 | 0.00068 |
| B3 |  |  |  |  |  |  |  | 0.0046 | 0.00029 |
| B4 |  |  |  |  |  |  |  | 0.0021 | 0.0003 |
| B5 | 1.4 | 0.4 | 229 | 0.1 | 1.4 | 0.5 | 1.7 |  |  |
